Reference: patent US20100233154A1, “TARGETED BINDING AGENTS DIRECTED TO HEPARANASE AND USES THEREOF 463” (MedImmune Limited, priority 2008, published 2010)

T1: human heparanase (Homo sapiens, UniProt Q9Y251)
T1 sequence (Q9Y251 36-543): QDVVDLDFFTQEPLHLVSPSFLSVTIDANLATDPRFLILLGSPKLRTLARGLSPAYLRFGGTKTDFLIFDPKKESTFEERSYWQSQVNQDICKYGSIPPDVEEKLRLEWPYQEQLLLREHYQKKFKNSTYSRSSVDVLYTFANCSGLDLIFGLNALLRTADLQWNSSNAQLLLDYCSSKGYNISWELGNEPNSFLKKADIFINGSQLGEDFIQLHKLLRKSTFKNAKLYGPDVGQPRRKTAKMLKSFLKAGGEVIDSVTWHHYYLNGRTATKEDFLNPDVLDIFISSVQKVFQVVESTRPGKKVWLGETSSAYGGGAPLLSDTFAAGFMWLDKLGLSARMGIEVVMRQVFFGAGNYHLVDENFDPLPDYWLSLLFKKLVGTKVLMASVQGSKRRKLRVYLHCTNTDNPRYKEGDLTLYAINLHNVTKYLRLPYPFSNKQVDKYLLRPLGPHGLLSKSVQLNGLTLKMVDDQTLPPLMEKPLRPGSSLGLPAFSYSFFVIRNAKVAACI

T2: recombinant human heparanase (Homo sapiens, UniProt Q9Y251)
T2 construct: Heparanase 8 and 50 kDa sub-units were cloned into pacGP67 as Sma 1-EcoR1 fragments; made in house; host or cells: Hi5 insect cells, baculovirus (pFastBac Dual)
T2 sequence (Q9Y251 158-543 limits assumed): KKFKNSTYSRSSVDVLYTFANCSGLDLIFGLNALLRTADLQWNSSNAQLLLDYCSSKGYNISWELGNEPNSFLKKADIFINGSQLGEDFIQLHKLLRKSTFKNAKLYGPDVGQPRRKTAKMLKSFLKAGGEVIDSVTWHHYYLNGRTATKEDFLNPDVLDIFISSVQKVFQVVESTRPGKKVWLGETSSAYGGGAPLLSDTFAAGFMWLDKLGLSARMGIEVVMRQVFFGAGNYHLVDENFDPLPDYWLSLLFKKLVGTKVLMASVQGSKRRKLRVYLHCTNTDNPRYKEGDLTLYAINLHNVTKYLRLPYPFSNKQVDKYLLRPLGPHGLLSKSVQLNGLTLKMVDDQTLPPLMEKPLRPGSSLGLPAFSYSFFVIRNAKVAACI
T2 sequence (Q9Y251 36-109 limits assumed): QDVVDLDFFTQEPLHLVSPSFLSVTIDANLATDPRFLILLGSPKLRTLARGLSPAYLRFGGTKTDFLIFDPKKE

T3: recombinant heparanase captured with rabbit anti-heparanase antibody (Homo sapiens, UniProt Q9Y251)
T3 construct: Heparanase 8 and 50 kDa sub-units were cloned into pacGP67 as Sma 1-EcoR1 fragments; made in house; host or cells: Hi5 insect cells, baculovirus (pFastBac Dual)
T3 sequence (Q9Y251 158-543 limits assumed): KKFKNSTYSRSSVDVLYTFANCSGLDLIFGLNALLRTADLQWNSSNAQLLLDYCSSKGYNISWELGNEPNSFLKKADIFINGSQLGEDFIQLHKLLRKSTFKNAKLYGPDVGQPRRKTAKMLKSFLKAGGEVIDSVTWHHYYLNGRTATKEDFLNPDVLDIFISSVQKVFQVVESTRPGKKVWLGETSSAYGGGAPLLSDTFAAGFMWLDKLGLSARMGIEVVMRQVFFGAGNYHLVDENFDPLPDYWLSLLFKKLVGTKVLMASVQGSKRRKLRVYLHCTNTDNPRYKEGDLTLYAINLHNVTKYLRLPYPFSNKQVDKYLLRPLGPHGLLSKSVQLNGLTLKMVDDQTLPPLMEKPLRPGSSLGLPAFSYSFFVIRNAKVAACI
T3 sequence (Q9Y251 36-109 limits assumed): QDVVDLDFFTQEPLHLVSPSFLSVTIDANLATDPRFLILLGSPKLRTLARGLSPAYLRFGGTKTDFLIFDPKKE

T4: murine heparanase (Mus musculus, UniProt Q6YGZ1)
T4 construct: made in house; host or cells: Hek293 cells (conditioned medium), inferred for the ELISA
T4 sequence (Q6YGZ1 28-535): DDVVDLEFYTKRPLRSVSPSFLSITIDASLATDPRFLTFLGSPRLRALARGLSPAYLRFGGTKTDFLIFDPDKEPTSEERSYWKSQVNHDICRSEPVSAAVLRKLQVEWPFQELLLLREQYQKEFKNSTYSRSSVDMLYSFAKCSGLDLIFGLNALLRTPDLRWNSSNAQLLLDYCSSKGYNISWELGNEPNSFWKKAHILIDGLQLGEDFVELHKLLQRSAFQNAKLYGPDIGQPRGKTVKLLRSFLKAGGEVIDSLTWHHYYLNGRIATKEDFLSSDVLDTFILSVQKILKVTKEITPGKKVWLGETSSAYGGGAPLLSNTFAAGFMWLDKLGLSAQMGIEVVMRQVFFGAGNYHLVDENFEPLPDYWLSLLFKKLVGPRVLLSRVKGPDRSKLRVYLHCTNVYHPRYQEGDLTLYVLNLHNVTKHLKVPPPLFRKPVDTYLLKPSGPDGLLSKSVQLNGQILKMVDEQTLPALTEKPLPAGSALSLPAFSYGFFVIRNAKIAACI

T5: Recombinant Hpa1 (Homo sapiens, UniProt Q9Y251)
T5 construct: Heparanase 8 and 50 kDa sub-units were cloned into pacGP67 as Sma 1-EcoR1 fragments; made in house; host or cells: Hi5 insect cells, baculovirus (pFastBac Dual)
T5 sequence (Q9Y251 158-543 limits assumed): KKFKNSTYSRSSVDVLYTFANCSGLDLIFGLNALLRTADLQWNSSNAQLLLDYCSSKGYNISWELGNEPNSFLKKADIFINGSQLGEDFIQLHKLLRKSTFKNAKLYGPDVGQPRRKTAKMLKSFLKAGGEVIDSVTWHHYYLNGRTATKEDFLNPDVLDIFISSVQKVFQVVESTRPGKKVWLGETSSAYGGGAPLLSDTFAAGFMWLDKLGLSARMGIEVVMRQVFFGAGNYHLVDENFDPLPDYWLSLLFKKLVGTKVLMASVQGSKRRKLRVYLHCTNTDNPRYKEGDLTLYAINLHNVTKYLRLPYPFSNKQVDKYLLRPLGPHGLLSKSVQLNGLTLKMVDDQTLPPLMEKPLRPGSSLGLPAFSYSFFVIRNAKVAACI
T5 sequence (Q9Y251 36-109 limits assumed): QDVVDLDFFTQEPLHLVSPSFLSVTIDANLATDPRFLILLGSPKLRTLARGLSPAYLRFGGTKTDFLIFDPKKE


Key:
[1] = target: T1, human heparanase; test: Cross species capture ELISA, human heparanase; format: binding
Procedure: (§1) Initially, cross species binding to human, murine and cynomolgus heparanase was determined in an ELISA assay in which heparanase was captured onto plates using a rabbit anti-heparanase antibody (Raybiotech, Cat. IP-14-155). Exhaustive supernatants were added to the plates at a final dilution of 1:5 and bound antibody detected with a rabbit anti-human IgG Fc.

[2] = target: T2, recombinant human heparanase; test: ELISA binding to directly coated recombinant human heparanase
Procedure: (§2) Titres of antibodies from Campaigns 1 and 2 were determined in an ELISA. Costar 3368 medium binding plates were coated directly with recombinant human heparanase or plates were coated with Rabbit anti-heparanase antibody (Raybiotech, Cat. IP-14-155) to capture recombinant heparanase. Directly coated heparanase was detected in three separate plates by mouse (InSight Cat. INS-26-1-0000), goat (Santa Cruz, Cat. sc26136) or rabbit (Raybiotech, Cat. IP-14-155) anti-heparanase antibodies, and quantified using appropriate secondary antibodies. Antibody captured heparanase was detected using mouse anti-heparanase (Insight Cat. INS-26-1-0000). At the end of the immunisation program, fusions were performed using mouse myeloma cells and lymphocytes isolated from the spleens and lymph nodes of the immunised mice by means of electroporation, as described in Example 2.
(§3) Initial screening to detect antibodies binding to human heparanase in both direct coating and antibody capture ELISAs as described above identified 800 hybridomas for further testing; 535 IgG2 from Campaign 1 and 2 and 265 IgG4 from Campaign 2. Enzyme inhibition assays and cross species binding to cynomolgus and murine heparanase, in an antibody capture ELISA, identifed 12 antibodies that were taken forward for sub-cloning to provide purified antibodies for further analysis. Subsequently, confirmation of activity against human heparanase (FIGS. 3 and 4) and inhibition of recombinant cynomolgus and murine heparanase activity in the HS-cryptate degradation assay (FIG. 5a-c), together with sequence analysis, identified 8 antibodies that are described in the table below.

[3] = target: T3, recombinant heparanase captured with rabbit anti-heparanase antibody; test: ELISA binding to antibody-captured heparanase; conditions: antibody capture
Procedure: as §2, §3

[4] = system: cynomolgus heparanase; test: Cross species capture ELISA, cynomolgus heparanase; format: binding; conditions: min 0.06, max 1.5 OD units
Procedure: as §1

[5] = target: T4, murine heparanase; test: Cross species capture ELISA, murine heparanase; format: binding; conditions: min 0.06, max 0.9 OD units
Procedure: as §1

[6] = system: MDA MB231-Hpa1#4 cells; test: Heparanase expression in cells cultured with antibody (Western blot); format: cell-based, human; conditions: 25 μg per ml antibody, 72 hrs, compared to untreated or IgG2 control
Procedure: MDA MB231-Hpa1#4 cells were cultured in the presence of 25 μg per ml anti-human heparanase antibody or control IgG2 antibody (Sigma Cat. No. 1504-1MG) for 72 hrs. Following the removal of culture medium, protein extracts were prepared from the cells in 100 μl RIPA buffer and separated on […] gels and transferred to nitrocellulose as described above. Western blots were probed with an anti-heparanase antibody that detected only pro-heparanase (SantaCruz Cat. No. SC25825).

[7] = system: HCT116 xenograft; test: Subcutaneous xenograft tumour growth, HCT116; format: in vivo, SCID mice; conditions: once weekly i.p.; 10E9.1 at 15 mg per kg
Procedure: (§4) MCF7-Hpa1#19 and HCT116 tumour cells were harvested from sub-confluent cultures. A total of 5×10^6 (MCF7-Hpa1#19) or 10^7 (HCT116) tumour cells were inoculated subcutaneously into the flank of male SCID mice. HCT116 tumour cells were implanted in PBS; […] cells were implanted in PBS containing 50% matrigel.
(§5) When tumours had attained ˜200 mm^3, tumour bearing mice were randomised into treatment groups and dosed with the following; PBS; an isotype matched control IgG2 antibody, 15 mg per kg; anti-heparanase antibody 10E9.1, 7.5 or 15 mg per kg. All treatments were administered once weekly i.p. Tumour growth was measured twice per week using calipers and tumour volumes calculated according to an ellipsoid volume is formula (3.142/6×length×width×width) from measures of the largest tumour diameter and two opposing widths (FIG. 11).

[8] = target: T5, Recombinant Hpa1; test: Medium resolution Biacore affinity; format: binding
Procedure: For medium resolution Biacore™ tests, cloned and purified antibodies were used. Each of three purified antibodies (10E9.1, 15A1.2, and 15A11.1) were captured onto a high-density goat anti-human antibody surface over a CM4 Biacore™ chip. Recombinant Hpa1 was diluted to the desired concentration (1 nM and 10 nM) in 10 mM HEPES, 150 mM NaCl, 0.005% tween-20, 0.1 mg per ml BSA pH7.4 (25° C.) immediately prior to injection. Data were fit globally to a 1:1 interaction model with a term for mass transport included. The resulting KD values are summarised below in Table 4.

[9] = system: MCF7-Hpa1#19 xenograft; test: Subcutaneous xenograft tumour growth, MCF7-Hpa1#19; format: in vivo, SCID mice; conditions: once weekly i.p.; 10E9.1 at 7.5 or 15 mg per kg
Procedure: as §4, §5

[10] = purified antibody captured on CM4 chip, Hpa1 1 nM and 10 nM, 25° C.

Row | Molecule | Binding to heparanase Human [1] [OD units] | Binding to direct coated heparanase [2] [OD units] | Binding to captured heparanase [3] [OD units] | Binding to heparanase Cyno [4] [OD units] | Binding to heparanase Mouse [5] [OD units] | Inhibition of heparanase expression [6] | Tumour growth inhibition [7] | Kd ([8]; 1:1 interaction model with mass transport term) [pM] | ka [8, 10] [M⁻¹ s⁻¹] | kd [8, 10] [s⁻¹] | Tumour growth inhibition [9]
1 | 7B9.1: human anti-heparanase monoclonal antibody, G4λ; VH SEQ ID NO 22, VL SEQ ID NO 24 (antibody, listed as Homo Sapiens, V domains shown) VH: QVQLVESGGGVVQPGRSLRLSCAASGFTFSSYGMHWVRQAPGKGLEWVAVIWYDGSNKYYADSVKGRFTISRDNSKNTLYLQMNSLRAEDTAVYYCAREGAPYSSSDAFDIWGQGTMVTVSS VL: QSVLTQPPSVSGAPGQRVTISCTGSSSNIGANYDVHWYQQLPGTAPKLLIYGDNNRPSGVPDRFSGSKSGTSASLAITGLQAEDEADYYCQSYDSSLSGSVFGGGTKLTVL | 0.68 | 3.78 | 6.0 | 1.06 | 0.58 |  |  |  |  |  | 
2 | 15A1.2: fully human anti-heparanase monoclonal antibody, G2κ; VH SEQ ID NO 6, VL SEQ ID NO 8; ATCC PTA-9491 (antibody, listed as Homo Sapiens, V domains shown, fully human anti-heparanase monoclonal antibody, G2κ; ATCC PTA-9491) VH: QVQLVQSGAEVKKPGASVKVSCKVSGYTLTELSMHWVRQAPGKGLEWMGGFDPEDGETIFAQKFQGRVTMTEDTSTDTAYMELSSLRSEDTAVYYCATGLRFLEWFLWGWDVWGQGTTVTVSS VL: DIQMTQSPSSVSASVGDRVTITCRASQGISNWLAWYQQTPGKAPQLLIYGASSLQSGVPSRFSGSGSGTDFTLTISSLQPEDFATYYCQQADSFPPTFGQGTKVEIK | 0.19 | 0.08 | 0.92 | 0.11 | 0.14 | significant inhibition of heparanase expression | not inhibited | 85.9 | 1.88e+06 | 0.000105 | not inhibited
3 | 16G1.1: human anti-heparanase monoclonal antibody, G4κ; VH SEQ ID NO 14, VL SEQ ID NO 16 (antibody, listed as Homo Sapiens, V domains shown) VH: QVQLVESGGGVVQPGRSLRLSCAASGFTFSSYGMHWVRQAPGKGLEWVAVIWYDGSNKYYADSVKGRFTISRDNSKNTLNLQMNSLRAEDTAVYYCGRDPGTYHYYYHGMDVWGQGTTVTVSS VL: YIVMTQSPLSLPVTPGEPASISCRSSQSLLHSNGYNFLDWYLQKPGQSPQLLIYLGSNRASGVPDRFSGSGSGTDFTLKINRVEAEDVGVYYCMQALQTPITFGQGTRLEIK | 1.84 | 3.63 | 3.82 | 1.64 | 0.61 |  |  |  |  |  | 
4 | 14H12.3: human anti-heparanase monoclonal antibody, G2λ; VH SEQ ID NO 26, VL SEQ ID NO 28 (antibody, listed as Homo Sapiens, V domains shown) VH: QVQLVESGGGVVQPGRSLRLSCAASGFTFSSYGMHWVRQAPGKGLEWVAVIWYDGSNKDYADSVKGRFTISRDNSKNTLYLQMNSLRAEDTAVYYCAREGSTSWTDYYGMDVWGQGTTVTVSS VL: SYELTQPPSVSVSPGQTARITCSGDALPKRYAYWYQQKSGQALVLVIYEDSKRPSGIPERFSGSSSGTMATLTISGAQVEDEADYYCYSIDSSGNHGVFGGGTKLTVL | 0.61 | 3.69 | 3.27 | 0.95 | 0.14 |  |  |  |  |  | 
